In patent US5210024A, “Isolation of strains of Saccharomyces cerevisiae having altered α-acetyltransferase activity” (priority 1991, dated 1993):
Ends that are not written are not given here.

Experiments:
[1] = molecular target: T1, N^α -AT (AAA1 N^α -acetyltransferase) (Saccharomyces cerevisiae, UniProt P07347+P12945); assay: N^α-acetylation of synthetic peptides by AAA1 N^α-acetyltransferase ([3H]acetyl coenzyme A incorporation); format: biochemical; set-up: concentration or dose not given beside the values
T1 construct: isolates N^α -acetyltransferase by treating yeast cells with lyticase; endogenous in cells; host or cells: Saccharomyces cerevisiae cells (native enzyme)
T1 sequence (P12945 2-854): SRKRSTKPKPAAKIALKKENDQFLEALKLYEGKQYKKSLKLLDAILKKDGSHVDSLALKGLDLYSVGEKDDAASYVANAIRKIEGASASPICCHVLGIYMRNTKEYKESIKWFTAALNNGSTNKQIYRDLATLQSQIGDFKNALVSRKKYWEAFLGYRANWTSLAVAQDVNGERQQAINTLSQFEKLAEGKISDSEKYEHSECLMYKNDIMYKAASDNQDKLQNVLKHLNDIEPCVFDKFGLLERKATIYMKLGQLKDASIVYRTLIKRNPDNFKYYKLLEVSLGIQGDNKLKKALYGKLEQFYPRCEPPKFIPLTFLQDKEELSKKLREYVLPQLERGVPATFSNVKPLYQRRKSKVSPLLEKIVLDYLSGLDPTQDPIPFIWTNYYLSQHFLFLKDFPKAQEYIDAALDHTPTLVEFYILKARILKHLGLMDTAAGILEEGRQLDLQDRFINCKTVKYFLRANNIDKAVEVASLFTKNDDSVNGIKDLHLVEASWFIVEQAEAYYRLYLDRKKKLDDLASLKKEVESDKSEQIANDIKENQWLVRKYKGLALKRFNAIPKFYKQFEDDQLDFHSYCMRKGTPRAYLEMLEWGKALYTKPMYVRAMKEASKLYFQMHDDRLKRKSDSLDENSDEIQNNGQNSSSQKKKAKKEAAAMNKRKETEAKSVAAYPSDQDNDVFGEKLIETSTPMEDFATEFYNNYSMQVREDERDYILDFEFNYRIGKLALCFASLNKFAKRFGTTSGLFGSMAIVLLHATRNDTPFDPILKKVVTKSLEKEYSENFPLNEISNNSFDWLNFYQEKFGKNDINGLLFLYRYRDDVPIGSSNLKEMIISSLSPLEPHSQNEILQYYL
T1 sequence (P07347 1-238): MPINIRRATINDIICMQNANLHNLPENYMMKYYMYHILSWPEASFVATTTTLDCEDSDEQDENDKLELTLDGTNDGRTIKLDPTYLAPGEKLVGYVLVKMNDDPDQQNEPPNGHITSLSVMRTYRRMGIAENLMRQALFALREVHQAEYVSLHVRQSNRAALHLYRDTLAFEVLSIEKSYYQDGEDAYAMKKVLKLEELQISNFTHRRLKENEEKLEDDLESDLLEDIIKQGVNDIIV
Procedure: (§1) Aliquots of the lysate were added to 1.5 ml Eppendorf tubes containing a reaction mixture of 50 mM HEPES, pH 7.4, 150 mM KCl, 1 mM DTT, 25 μM[^3 H]acetyl coenzyme A (0.5 μCi) and 50 μM ACTH (1-24) with an adjusted final volume of 100 μl. The assay mixture was incubated at 30 C for 30 min. The reaction was stopped by adding 0.5 M acetic acid and chilled in an ice bath. […] The radioactivity in the control represented acetylation of endogenous compounds is subtracted from each sample determination. One unit of activity is defined as 1 pmol of acetyl residues incorporated into ACTH (1-24) under standard assay conditions.
(§2) This second N^α -acetyltransferase is a methionine N^α -acetyltransferase activity, and is designated as "M-N^α -AT." This second N^α -acetyltransferase is the subject of U.S. patent application of John A. Smith and Fang-Jen S. Lee, filed Oct. […] In order to compare the relative specificity and activity of the AAA1 N^α -acetyltransferase ("N^α -AT") of the present invention with the methionine N^α -acetyltransferase activity (M-N^α -AT) of U.S. patent application of John A. Smith and Fang-Jen S. Lee, filed Oct. […] These peptides were assessed for their ability to serve as substrates for the two enzymes. In Table 2, the effect of the amino terminal amino acid on activity is investigated; in Table 3, the effect of the penultimate amino terminal amino acid on activity is investigated.

[2] = molecular target: T2, M-N^α -AT (methionine N^α -acetyltransferase) (Saccharomyces cerevisiae, UniProt Q06504); assay: N^α-acetylation of synthetic peptides by methionine N^α-acetyltransferase; format: biochemical; set-up: concentration or dose not given beside the values
T2 construct: endogenous in cells; host or cells: Saccharomyces cerevisiae aaa1 (AAA1-null) mutant
T2 sequence (Q06504 1-195): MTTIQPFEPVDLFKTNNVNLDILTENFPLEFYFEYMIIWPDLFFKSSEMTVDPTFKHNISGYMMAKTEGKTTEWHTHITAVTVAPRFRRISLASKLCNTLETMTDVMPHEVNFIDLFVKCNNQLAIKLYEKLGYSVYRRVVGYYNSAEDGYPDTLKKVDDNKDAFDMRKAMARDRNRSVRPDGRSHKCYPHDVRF
T2 sequence (Q12387 2-796 partner limits assumed): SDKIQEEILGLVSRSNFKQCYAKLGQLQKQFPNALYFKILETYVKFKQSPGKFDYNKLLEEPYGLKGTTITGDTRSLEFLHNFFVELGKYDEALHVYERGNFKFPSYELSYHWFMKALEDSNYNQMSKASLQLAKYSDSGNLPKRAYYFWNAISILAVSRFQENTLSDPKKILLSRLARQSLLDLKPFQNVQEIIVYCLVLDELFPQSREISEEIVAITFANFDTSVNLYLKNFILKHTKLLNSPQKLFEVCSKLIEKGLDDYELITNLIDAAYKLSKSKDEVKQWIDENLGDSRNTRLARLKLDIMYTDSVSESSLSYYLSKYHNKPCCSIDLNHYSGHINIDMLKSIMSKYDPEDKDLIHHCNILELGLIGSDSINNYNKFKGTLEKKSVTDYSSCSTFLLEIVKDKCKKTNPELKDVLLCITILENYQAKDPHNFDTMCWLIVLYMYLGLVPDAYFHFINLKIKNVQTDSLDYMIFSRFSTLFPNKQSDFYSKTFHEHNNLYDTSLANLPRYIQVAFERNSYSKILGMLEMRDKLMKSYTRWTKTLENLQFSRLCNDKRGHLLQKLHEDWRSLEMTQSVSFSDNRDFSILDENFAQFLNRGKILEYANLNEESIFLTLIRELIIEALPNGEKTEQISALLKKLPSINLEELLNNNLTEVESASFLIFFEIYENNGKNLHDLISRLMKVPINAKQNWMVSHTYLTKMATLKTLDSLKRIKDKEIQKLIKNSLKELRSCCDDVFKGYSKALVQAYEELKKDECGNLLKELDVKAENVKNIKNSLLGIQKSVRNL
Procedure: as §1, §2

[3] = Table 3: relative activity for N^α-acetylation of synthetic peptide substrate, influence of the penultimate amino terminal residue
[4] = Table 2: relative activity for N^α-acetylation of synthetic peptide substrate, influence of the amino terminal residue

Row | Substance | Activity (%) (mean activity ± S.D.) N^α -AT [1, 3] | Activity (%) (mean activity ± S.D.) M-N^α -AT [2, 3] | Activity (%) (mean activity ± S.D.) N^α -AT [1, 4] | Activity (%) (mean activity ± S.D.) M-N^α -AT [2, 4]
1 | SEPETQKGVIFYESHGKLEYKDIP (SEPETQKGVIFYESHGKLEYKDIP) | 121 ± 6 | 0 | – | –
2 | SKPETQKGVIFYESHGKLEYKDIP (SKPETQKGVIFYESHGKLEYKDIP) | 151 ± 6 | 0 | – | –
3 | SDPETQKGVIFYESHGKLEYKDIP (SDPETQKGVIFYESHGKLEYKDIP) | 171 ± 9 | 0 | – | –
4 | SWPETQKGVIFYESHGKLEYKDIP (SWPETQKGVIFYESHGKLEYKDIP) | 91 ± 5 | 0 | – | –
5 | SLPETQKGVIFYESHGKLEYKDIP (SLPETQKGVIFYESHGKLEYKDIP) | 126 ± 5 | 0 | – | –
6 | SQPETQKGVIFYESHGKLEYKDIP (SQPETQKGVIFYESHGKLEYKDIP) | 134 ± 7 | 0 | – | –
7 | SAPETQKGVIFYESHGKLEYKDIP (SAPETQKGVIFYESHGKLEYKDIP) | 168 ± 8 | 0 | – | –
8 | KIPETQKGVIFYESHGKLEYKDIP (KIPETQKGVIFYESHGKLEYKDIP) | – | – | 0 | 0
9 | CIPETQKGVIFYESHGKLEYKDIP (CIPETQKGVIFYESHGKLEYKDIP) | – | – | 0 | 0
10 | IIPETQKGVIFYESHGKLEYKDIP (IIPETQKGVIFYESHGKLEYKDIP) | – | – | 0 | 0
11 | YIPETQKGVIFYESHGKLEYKDIP (YIPETQKGVIFYESHGKLEYKDIP) | – | – | 20 ± 2 | 0
12 | SNPETQKGVIFYESHGKLEYKDIP (SNPETQKGVIFYESHGKLEYKDIP) | 116 ± 5 | 0 | – | –
13 | AIPETQKGVIFYESHGKLEYKDIP (AIPETQKGVIFYESHGKLEYKDIP) | – | – | 0 | 0
14 | WIPETQKGVIFYESHGKLEYKDIP (WIPETQKGVIFYESHGKLEYKDIP) | – | – | 0 | 0
15 | SGPETQKGVIFYESHGKLEYKDIP (SGPETQKGVIFYESHGKLEYKDIP) | 84 ± 5 | 0 | – | –
16 | VIPETQKGVIFYESHGKLEYKDIP (VIPETQKGVIFYESHGKLEYKDIP) | – | – | 69 ± 4 | 0
17 | GIPETQKGVIFYESHGKLEYKDIP (GIPETQKGVIFYESHGKLEYKDIP) | – | – | 23 ± 3 | 0
18 | FIPETQKGVIFYESHGKLEYKDIP (FIPETQKGVIFYESHGKLEYKDIP) | – | – | 9 ± 2 | 0
19 | RIPETQKGVIFYESHGKLEYKDIP (RIPETQKGVIFYESHGKLEYKDIP) | – | – | 0 | 0
20 | SRPETQKGVIFYESHGKLEYKDIP (SRPETQKGVIFYESHGKLEYKDIP) | 102 ± 5 | 0 | – | –
21 | MIPETQKGVIFYESHGKLEYKDIP (MIPETQKGVIFYESHGKLEYKDIP) | – | – | 15 ± 2 | 0
22 | SSPETQKGVIFYESHGKLEYKDIP (SSPETQKGVIFYESHGKLEYKDIP) | 140 ± 6 | 0 | – | –
23 | SPPETQKGVIFYESHGKLEYKDIP (SPPETQKGVIFYESHGKLEYKDIP) | 0 | 0 | – | –
24 | HIPETQKGVIFYESHGKLEYKDIP (HIPETQKGVIFYESHGKLEYKDIP; also: tritium label) | – | – | 19 ± 2 | 0
25 | SMPETQKGVIFYESHGKLEYKDIP (SMPETQKGVIFYESHGKLEYKDIP) | 140 ± 7 | 0 | – | –
26 | SYPETQKGVIFYESHGKLEYKDIP (SYPETQKGVIFYESHGKLEYKDIP) | 169 ± 8 | 0 | – | –
27 | SVPETQKGVIFYESHGKLEYKDIP (SVPETQKGVIFYESHGKLEYKDIP) | 123 ± 7 | 0 | – | –
28 | SHPETQKGVIFYESHGKLEYKDIP (SHPETQKGVIFYESHGKLEYKDIP) | 125 ± 6 | 0 | – | –
